Data on 41 sequences can be found in the nanobody polyreactivity screen of Harvey et al. (2022).

The data set in a line: yeast display, Sf9 membrane polyspecificity reagent, FACS + sequencing; frameworks hold sequencing errors. The gist of the method: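 Sorting gates, low and high (top ~1%), were placed on anti-HA fluorescence to track expression and on streptavidin fluorescence to track reagent binding. A clone's polyreactivity label is taken from the gate it came out of. The reagent was 10% biotinylated, detergent-solubilized Sf9 membrane, applied for 1 hour at 4 °C to galactose-induced yeast display cells.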
With “QVQLVESGGGLVQAGGSLRLSCAASGSTLGYYVMGWYRQAPGKERELVAAITGGGSTDYADSVKGRFTISRDNEKNTVYLQMNSLKPEDTAVYYCAAERTRTGQLFWWGPIYDYWGQGTQVTVSS”, the “polyreactivity (PSR sort gate)” value is given as “low polyreactivity”. The result for “QVQLVESGGGLVQAGGSLRLSCAASGSTLHSYAMGWYRQAPGKERELVAAISFRGGSTYADSVKGRFTISRDNAKNTVYLQMNSLKPEDTAVYYCAAYSVYTMYWGQGTQVTVSS” reads “low polyreactivity”; that for “QVQLVESGGGLVQAGGSLRLSCAASGSTLLYYAMGWYRQAPGKERELVAAISSTGSTNYADSVKGRFTISRDNAKNTVYLQMKSLKPEDTAVYYCAADYSVPTSQAYDYWGQGTQVTVSS”, “low polyreactivity”; that for “QVQLVESGGGLVQAGGSLRLSCAASGSTLNRNVMGWYRQAPGKERELVAVITYGVGSTYYADSVKGRFTISRDNAKNTVYLQMNSLKPEDTAVYYCNKDPLVFDYWGQGTQVTVSS”, “low polyreactivity”. The result for “QVQLVESGGGLVQAGGSLRLSCAASGSTLNRYAMGWYRQAPGKERELVAAINGSGGSTYYADSVKGRFTISRENAKNTVYLLINSLKQEDSAVYYCAAYGYSFAYGAYGYWGQGTQVTVSS” reads “high polyreactivity”; that for “QVQLVESGGGLVQAGGSLRLSCAASGSTLPANAMGWYRQAPGKERELVAAITITTDGSTYYADSVKGRFTISRDNAKNTVYLQLNSLKPEDTAVYYCAVARYRYHIRKMGYWGQGTQVTVSS”, “low polyreactivity”. The result for “QVQLVESGGGLVQAGGSLRLSCAASGSTLPFNAMGCYRQAPGKERELVAAISSGSSTNYADSVKGRFTISRDNAKNTVYLKMNSLKPEDTAVYYCNARPRANQLGDYYKPGTYDYWGQGTQVTVSS” reads “low polyreactivity”. “QVQLVESGGGLVQAGGSLRLSCAASGSTLPVYAMGWYRQAPGKERELVATITDTGITNYADSVKGRFTLSRDNAKNTVYLQMNSLKPEDTAVYYCAVDSTGVWPYQVGYAPYDYWGQGTQVTVSS”: the “polyreactivity (PSR sort gate)” value is “low polyreactivity”.

For the sequence “QVQLVESGGGLVQAGGSLRLSCAASGSTLQDNAMGWYRQAPGKDRELVAAITTGSTTYADSVKGRFTISRDNAKNTVYIQMNSLKPEDTAVYYCAADSEEYDGYTWWVFKFDYWGQGTQVTVSS”, the “polyreactivity (PSR sort gate)” value is recorded as “low polyreactivity”. The result for “QVQLVESGGGLVQAGGSLRLSCAASGSTLQDNAMGWYRQAPGKERELVAAITTGSTTYADSVKGRFTISRDNAKNTVYLQMNSLKPEDTAVYYCNARVDWGWPGYEYDYWGQGTQVTVSS” reads “low polyreactivity”; that for “QVQLVESGGGLVQAGGSLRLSCAASGSTLQGYAMGWYRQAPGKERELVAAISRSGGSTYYADSVKGRFTISRDNAKNTVYLQMNSLKPEDTAVYYCNRVAGGRRKGPWSYQYDYWGQGPQVTVSS”, “high polyreactivity”.

Turning to “QVQLVESGGGLVQAGGSLRLSCAASGSTLRAYAMGWYRQAPGKERELVAGITSGGRTNYADSVKGRFTISRDNAKNTVYLQMNSLKPEDTAVYYCATDRFSHYYFLYDYWGQGTQVTVSS”, the “polyreactivity (PSR sort gate)” value was “low polyreactivity”. With “QVQLVESGGGLVQAGGSLRLSCAASGSTLRAYAMGWYRQAPGKERELVATITRGARTNYADSVKGRFTISRDNAKNTVYLQMNSLKPEDTAVYYCAARSYGSQLSRQVYYWGQGTQVTVSS” the entry was “high polyreactivity”. The result for “QVQLVESGGGLVQAGGSLRLSCAASGSTLRFYAMGWYRPAPGKERELVAAISSSGSSTYYADSVKGRFTISRDNAKNTVYLQLNSLKPEDTAVYYCSGYGYWGQGTQVTVSS” reads “high polyreactivity”; that for “QVQLVESGGGLVQAGGSLRLSCAASGSTLRFYAMGWYRQAAGKERELVADITYRGGSTYYADSVKGRFTISRDNAKNTVYLQMNSLKPEDTAVDYCAKQRSYSSKFDYWGQGSQVTVSS”, “high polyreactivity”.

Consider “QVQLVESGGGLVQAGGSLRLSCAASGSTLRRYAMGWYRQAPGKERELVAAISGTGSRTYYADSVNGRFTISRDNAKNTDYLQMNSLKPEDTAVYYCNASQYRLTENDYWGQGTQVNVSS”, for which the “polyreactivity (PSR sort gate)” value is on record as “high polyreactivity”. On to “QVQLVESGGGLVQAGGSLRLSCAASGSTLRTNAMGWYRQAPGKERELVAAISSSAGSTYYADSVKGRFTISRDNAKNTVYLQMNSLKQEDTAVYYCAKQPGSAYGYWGQGTQVTVSS”, for which the “polyreactivity (PSR sort gate)” value is on record as “high polyreactivity”. The result for “QVQLVESGGGLVQAGGSLRLSCAASGSTLRVNAKGWYRQAPGKERELVAAISYRGGSTYYADSVKGRFTISRDNAKNTVYLQMNSLKPEDTAVYYCAAKQGATRGYYYWGQGTQVTVSS” reads “high polyreactivity”. With “QVQLVESGGGLVQAGGSLRLSCAASGSTLRWYAMGWYRQAPGKERELVARISWTTGSTYYADSVKGRFTISRDNAKNTVYLQMNSLKPEDTAVYYCAKGKKSSRSGIYNYWGQGTQVTVSS” the entry was “high polyreactivity”; with “QVQLVESGGGLVQAGGSLRLSCAASGSTLRWYTMGWYRQAPGKESELVATNSRGGTTNYADSVKGRFTISRDNAKNTVYLQMNSLKPEDTAVYYCASRDFWWSRRIFGYWGQGTHVTVSS”, “high polyreactivity”. Turning to “QVQLVESGGGLVQAGGSLRLSCAASGSTLRYYAMGWYRQAPGKERELVARIRSNGGSTYYADSVKGRFTISRDNAKNTVYLQMNSLKPEDSAVYYCAARTYRGQYYTGFGFGYWGQGTQVTVSS”, the “polyreactivity (PSR sort gate)” value was “high polyreactivity”. Turning to “QVQLVESGGGLVQAGGSLRLSCAASGSTLSAYVMGWYRQAPGKERELVAAISQSADSTYYADSVKGRFTILRDNAKNTVYLQMNSLKPEDTAVYYCAAEYPYIYRFDYWGQGTQVTVSS”, the “polyreactivity (PSR sort gate)” value was “low polyreactivity”. The result for “QVQLVESGGGLVQAGGSLRLSCAASGSTLSDNAMGWYRQAPGKERELVARISGDGSTNYADSVKGRFTISRDNAKNTVYLQMNSLKPDDTAVYYCNAGTAGIYYYGKSDYWGQGTQVTVSS” reads “low polyreactivity”; that for “QVQLVESGGGLVQAGGSLRLSCAASGSTLSENVMGWYRQAPGKERELVATISYSGDSTYYADSVKGRFTISRDNAKNTVYLQMNSLIPEDTAVYYCNADHFVTVGQFDWYDSWGQGTQVTVSS”, “low polyreactivity”; that for “QVQLVESGGGLVQAGGSLRLSCAASGSTLSKYGMGRYRQAPGKERELVAAISYSSGSTYYADSVKGRFTISRDNAKNSVYLQMNSLKPEDTAVYYGAADRFRRLHYWTYDYWGQGTQVTVSS”, “high polyreactivity”.

Turning to “QVQLVESGGGLVQAGGSLRLSCAASGSTLSRYAMGWYRQAPGKERELVAAISRRGGSTFYADSVKGRFTISRDNAKNTVYLQRNSLKPEDTAVYYCAALSNHGYYIRMDYWGQGTQVTVSS”, the “polyreactivity (PSR sort gate)” value is on record as “high polyreactivity”. With “QVQLVESGGGLVQAGGSLRLSCAASGSTLSRYAMGWYRQAPGKERELVAAISWSGGRTYYADSVKGRFTISRDYAKNTVYLQMNSLKPEDTAVYYCAARYGYRTPDGDYWGQGTQVTVSS” the entry was “high polyreactivity”; with “QVQLVESGGGLVQAGGSLRLSCAASGSTLTFNAMGWYIQAPGKERELVAAISWSDTDTYYADSVKGRFTISRDNAKNTVYLQMNSLKPEDTAVYYCAATLSAYEMDYWGQATQVTVSS”, “low polyreactivity”.

Take “QVQLVESGGGLVQAGGSLRLSCAASGSTLTFNAMGWYRQAPWKERELVAAISWSDTDTYYADSVKGRFTISRDNAKNTVYLQMNSLKPEDTAVYYCAATLSAYEMDYWGQATQVTVSS”: the “polyreactivity (PSR sort gate)” value is on record as “low polyreactivity”. The result for “QVQLVESGGGLVQAGGSLRLSCAASGSTLTRNDMGWYRQAPGKERELVAAITFSGSDTYYADSVKGRFTISRDNANNTVYLQMNSLKPEDTAVYYCAAEYGGYEYDQWGQGTQVTVSS” reads “low polyreactivity”. With “QVQLVESGGGLVQAGGSLRLSCAASGSTLTVNVMGWYRHAPGKEREFVAAINDSGSTYYADSVKGRFTISRDNAKNTVYLQMNSLKPEDTAVYYCATYYWVGLSLYDYWGQGTQVTVSS” the entry was “low polyreactivity”. With “QVQLVESGGGLVQAGGSLRLSCAASGSTLVAYAMGWYRQAPGKERELVAAISRSGGNTYYADSVKGRFTISRDNAKNTVYFQMISLKPEDTAVYYCAAVRLYRYDYWGQCTQVTVSS” the entry was “low polyreactivity”. With “QVQLVESGGGLVQAGGSLRLSCAASGSTLVDYAMGWYRQAPGKERQLVAAITSGGSTNYADSVMGRFTISRDNAKKTVYLQMNSLKPEDTAVYYCAAEWQRGLQAEYYYWGQGTKVTVSS”, the “polyreactivity (PSR sort gate)” value is “low polyreactivity”. With “QVQLVESGGGLVQAGGSLRLSCAASGSTLVGNAMGWYRQAPGKEMELVAVISYRGGSTYYADSVKGRFTISRDNAKNTVYLQMNSLKPEDTAVYDCAARYYRNPVFVIMDYWGQGTQVTVSS” the entry was “high polyreactivity”. With “QVQLVESGGGLVQAGGSLRLSCAASGSTLVGNAMGWYRQAPGKERELVAAISSSGTSTYYADSVKGRFTISRDNAKNTVYLQMNSLKPEDTAVYYCAAYVYGVGMDYWGQGTQVTVSS” the entry was “high polyreactivity”; with “QVQLVESGGGLVQAGGSLRLSCAASGSTLVGNTMGCYRQSPGKERELVAAITGVGSTNYADSVKGRFTISRDNAKNTVYLQMNSLKPEDTAVYYCAAQYSYTYIVSYLYDMDYWGQGTQVTVSS”, “low polyreactivity”. In the case of “QVQLVESGGGLVQAGGSLRLSCAASGSTLVRYAMGWYRQAPGKERELVAAISGSGGSTFYADSVKGRFTISRDNAKNSVYLQMNSLKPEDTAVYYCAARYYWYGRAGNKHASYYYWGQGTQVTVSS”, the “polyreactivity (PSR sort gate)” value is reported as “high polyreactivity”. The result for “QVQLVESGGGLVQAGGSLRLSCAASGSTLVVNGMGWYRQAPGKERELVASISSDGSTNYADSVKGRFTISRDNAKNTVYLQMNSLKPEDTAVYYCASDEGTGQASLSSNLYDYWGQGTQVTVSS” reads “low polyreactivity”; that for “QVQLVESGGGLVQAGGSLRLSCAASGSTLVVYAMGRYRQAPGIERELVAAISSIGGRPYYADSVKGRFTISRDNAKYTVYLQMNSLKPEDTAVYYCTALRYVVYFDDDYWGQGTQVTVSS”, “high polyreactivity”. With “QVQLVESGGGLVQAGGSLRLSCAASGSTLYANAMGWYRQAPGKEMALVAAITRTGGNTYYADSVKGRFTISRDNAKNTVYFQMNSLKPEDTAVYYCAARNPPTDHTGYQSSVLPGRYYWGQGTQVTVSS” the entry was “low polyreactivity”. As to “QVQLVESGGGLVQAGGSLRLSCAASGSTLYGYAMGWYRQAPGKERELVAAISVSGGRTYYADSVKGRFTISRDNAKNTVYLQMNSLKPEDTAVYYCAAYGTTRMDYWGQGTQVTVSS”, the “polyreactivity (PSR sort gate)” value is listed as “high polyreactivity”.
